The text below walks through data of patent US20230242645A1 (WUXI BIOLOGICS SHANGHAI, published 2023).

Test [1] addresses T1, human PD-L1 extracellular domain, mouse Fc (PD-L1.ECD.mFc, W3153-hPro1.ECD.mFc) (human, UniProt Q9NZQ7 19-238).
T1 construct: extracellular domain; also called WBP315-hPro1.ECD.mFc; antigen-2; not shown: mouse Fc tag at the C-terminus
Description: dual binding ELISA: plate coated with human VEGF, antibody titrated, then biotinylated PD-L1.ECD.mFc at 0.5 ug/ml.

Test [2] concerns the target T2, cynomolgus monkey PD-L1 on 293F cells (WBP315.293F.cPro1.2A) (cynomolgus monkey, UniProt G7PSE7 19-290).
T2 construct: also called cynomolgus PD-L1; cyno PD-L1
Description: FACS on cynomolgus PD-L1 expressing 293F cells, FITC anti-human IgG. Here is the method:
Engineered cynomolgus monkey PD-L1 expressing cells (WBP315.293F.cPro1.2A) were seeded at 1×10⁵ cells/well in U-bottom 96-well plates. […] UIgG1 was added to the cells. Plates were incubated at 4° C. for 1 hour. After wash, FITC-labeled goat anti-human IgG (Jackson ImmunoResearch, 109-095-008) was added to each well and the plates were incubated at 4° C. for 1 hour. The binding of the antibodies onto the cells was tested by flow cytometry and the mean fluorescence intensity (MFI) was analyzed by FlowJo.

The target of test [3] is T3, human PD-L1 extracellular domain, his tag (W315-hPro1.ECD.his) (human, UniProt Q9NZQ7 19-238).
T3 construct: extracellular domain; Analyte in SPR; also called W315-hPro1.ECD.his (PD-L1); ECD of PD-L1; not shown: C-terminal his tag (6xhis)
T3 sequence (Q9NZQ7 19-238): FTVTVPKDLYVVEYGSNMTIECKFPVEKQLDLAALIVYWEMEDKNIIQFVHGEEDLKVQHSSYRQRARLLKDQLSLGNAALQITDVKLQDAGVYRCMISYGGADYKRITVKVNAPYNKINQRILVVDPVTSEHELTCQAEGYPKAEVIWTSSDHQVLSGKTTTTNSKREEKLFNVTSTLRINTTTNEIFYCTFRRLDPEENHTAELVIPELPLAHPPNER
In words: SPR (Biacore T200), antibody captured on anti-human Fc, antigen as analyte, 25 °C. Here is the method:
Biacore T200, Series S Sensor Chip CM5, Amine Coupling Kit, and 10×HBS-EP were purchased from GE Healthcare. The antibody was captured onto the anti-human Fc IgG (Jackson, 109-005-098) surface immobilized on CM5-biosensor chip (GE Healthcare Inc.). The assay was performed at 25° C. with HBS-EP+ buffer (GE Healthcare Inc.) as running and dilution buffer. Serially diluted PD-L1 antigen or VEGF antigen (W315-hPro1.ECD.his or W325-hPro1.his) and running buffer were injected for an association phase and followed dissociation phase detection. Regeneration of the chip surface was reached by an injection of 10 mM Glycine, pH 1.5.
The on-rate constant (ka) and off-rate constant (kd) were also measured in the mean time. Final data of each interaction was deducted from reference channel and buffer channel data.
(In general: Surface plasmon resonance follows binding to a sensor surface in real time, without labels.)

Test [4] deals with T4, mouse PD-L1 on 293F cells (WBP315.293F.mPro1.C1) (mouse, UniProt Q9EP73 19-290).
T4 construct: whole, on cells; also called engineered mouse PD-L1 expressing cells
T4 sequence (Q9EP73 19-290): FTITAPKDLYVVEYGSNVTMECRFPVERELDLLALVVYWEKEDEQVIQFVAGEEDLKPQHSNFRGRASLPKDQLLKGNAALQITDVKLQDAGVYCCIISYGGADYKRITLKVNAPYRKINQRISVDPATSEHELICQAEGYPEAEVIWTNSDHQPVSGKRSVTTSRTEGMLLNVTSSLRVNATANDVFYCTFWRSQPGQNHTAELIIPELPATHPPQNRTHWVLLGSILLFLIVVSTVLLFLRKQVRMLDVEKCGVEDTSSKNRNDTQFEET
Description: FACS on mouse PD-L1 expressing 293F cells, FITC anti-human IgG. The method, then:
Engineered mouse PD-L1 expressing cells (WBP315.293F.mPro1.C1) were seeded at 1×10⁵ cells/well in U-bottom 96-well plates. Serial dilutions of the different antibodies were added to the cells. Plates were incubated at 4° C. for 1 hour. After wash, FITC-labeled goat anti-human IgG (Jackson ImmunoResearch, 109-095-008) was added to each well and the plates were incubated at 4° C. for 1 hour. […] UIgG1 onto the cells was tested by flow cytometry and the mean fluorescence intensity (MFI) was analyzed by FlowJo.

Test [5] has as its target T5, mouse VEGF (WBP325-mPro1, Sino Biological, 50159-MNAB) (mouse, UniProt Q00731-2 27-190).
T5 construct: Bought protein
T5 sequence (looked up): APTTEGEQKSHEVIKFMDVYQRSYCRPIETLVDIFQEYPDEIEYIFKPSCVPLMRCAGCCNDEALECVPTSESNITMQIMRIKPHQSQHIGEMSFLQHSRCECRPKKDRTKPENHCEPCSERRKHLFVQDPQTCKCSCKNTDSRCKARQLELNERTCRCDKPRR
Description: ELISA, plate coated with mouse VEGF, detection with anti-human IgG Fc-HRP.

In test [6] the target is T6, human PD-L1 on CHO-K1 cells (WBP315.CHO-K1.hPro1.C11) (human, UniProt Q9NZQ7 19-290).
T6 construct: whole, on cells; also called engineered human PD-L1 expressing cells
T6 sequence (Q9NZQ7 19-290): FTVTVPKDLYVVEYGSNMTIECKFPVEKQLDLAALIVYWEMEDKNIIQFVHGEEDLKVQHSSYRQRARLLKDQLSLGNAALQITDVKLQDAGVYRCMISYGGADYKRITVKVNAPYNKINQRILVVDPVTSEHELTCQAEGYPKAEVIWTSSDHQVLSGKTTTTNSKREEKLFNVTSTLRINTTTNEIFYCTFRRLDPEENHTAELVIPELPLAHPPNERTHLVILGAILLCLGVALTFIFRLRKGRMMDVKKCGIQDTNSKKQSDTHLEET
In words: FACS on human PD-L1 expressing CHO-K1 cells, FITC anti-human IgG. The method, then: Engineered human PD-L1 expressing cells (WBP315.CHO-K1.hPro1.C11) were seeded at 1×10⁵ cells/well in U-bottom 96-well plates. […] UIgG1 was added to the cells. Plates were incubated at 4° C. for 1 hour. After wash, FITC-labeled goat anti-human IgG (Jackson ImmunoResearch, 109-095-008) was added to each well and the plates were incubated at 4° C. for 1 hour. The binding of the antibodies onto the cells was tested by flow cytometry and the mean fluorescence intensity (MFI) was analyzed by FlowJo.

Test [7] addresses T6, human PD-L1 on CHO-K1 cells …. Description: FACS competition on human PD-L1 expressing CHO-K1 cells: antibody premixed with mouse Fc tagged human PD-1 at 5 ug/ml, PE anti-mouse IgG; blocked ligand human PD-1. Here is the method: Human PD-L1 expressing CHO-K1 cells (WBP315.CHO-K1.hPro1.C11) were seeded at 1×10⁵ cells/well in 96-well U-bottom plates. […] After washing, PE-labeled anti-mouse IgG was added and incubated with cells at 4° C. for 45 minutes. Cells were washed twice and MFI of the cells was measured by a flow cytometer and analyzed by FlowJo.

The target in test [8] is T4, mouse PD-L1 on 293F cells …. Description: FACS competition on mouse PD-L1 expressing cells: antibody premixed with mouse Fc tagged murine PD-1 at 5 ug/ml, PE anti-mouse IgG; blocked ligand mouse PD-1. Here is the method: Mouse PD-L1 expressing […] (WBP315.293F.mPro1.C1) were seeded at 1×10⁵ cells/well in 96-well U-bottom plates. […] After washing, PE-labeled anti-mouse IgG was added and incubated with cells at 4° C. for 1 hour. Cells were washed twice and MFI of the cells was measured by a flow cytometer and analyzed by FlowJo.

T2 sequence (G7PSE7 entry or part of it limits assumed): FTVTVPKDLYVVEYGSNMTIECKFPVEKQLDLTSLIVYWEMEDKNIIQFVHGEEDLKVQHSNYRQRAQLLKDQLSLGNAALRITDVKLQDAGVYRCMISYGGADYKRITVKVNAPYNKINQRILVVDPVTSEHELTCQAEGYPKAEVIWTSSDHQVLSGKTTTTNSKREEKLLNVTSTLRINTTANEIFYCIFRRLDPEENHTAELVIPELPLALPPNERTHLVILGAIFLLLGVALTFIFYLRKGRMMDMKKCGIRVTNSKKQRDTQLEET
T1 sequence (Q9NZQ7 19-238): as the sequence (Q9NZQ7 19-238) above

B1: WBP325-BMK3.uIgG1 (Bevacizumab) (antibody, V domains shown)
VH: EVQLVESGGGLVQPGGSLRLSCAASGYTFTNYGMNWVRQAPGKGLEWVGWINTYTGEPTYAADFKRRFTFSLDTSKSTAYLQMNSLRAEDTAVYYCAKYPHYYGSSHWYFDVWGQGTLVTVSS
VL: DIQMTQSPSSLSASVGDRVTITCSASQDISNYLNWYQQKPGKAPKVLIYFTSSLHSGVPSRFSGSGSGTDFTLTISSLQPEDFATYYCQQYSTVPWTFGQGTKVEIK
notes: also called W325-BMK3.uIgG1; W325-BMK3
For the molecule B1, the binding result in test [1] is listed as “no binding (tested: 100 nM)”.

B2: W3156-AP3R2-1A3-z12-hIgG1 (Fc fusion)
chain: EVQLVESGGGLVQPGGSLRLSCAASGHFSNLAVNWFRQAPGKERELVAGILWSGGSTFYADSVKGRFTISRGNAENMLYLQMNSLRAEDTAVYYCNTGTNWGQGTLVTVSS
notes: VHH in hIgG1 format as tested; The construction of the hIgG1 format is not described; also called anti-PD-L1 VHH antibody; parental anti-PD-L1 antibody; not shown: human IgG1 part (hIgG1) named in the label only
Take B2: the “EC50 (read off the curve)” value was ~2 nM in test [2], ~2 nM in test [4] and ~0.05 nM in test [6]. This molecule also gave a Kd in test [3] of 0.16 nM. In test [3], the dissociation rate constant (koff) turned out to be 0.000291 s⁻¹. In test [3], this molecule showed a kon of 1.82e+06 M⁻¹ s⁻¹. Moreover, in test [5], the binding result was “no binding (tested: 100 nM)”. The entries for the “IC50 (read off the curve)” value in test [7] and in test [8] were ~0.04 nM and ~2 nM, respectively.

For orientation: EC50 (read off the curve) means the midpoint of the concentration-response curve. As usually defined, the Kd is a measure of binding affinity in units of concentration. Broadly, the koff is a measure of how fast the partners let go of each other. Usually kon stands for a measure of how fast the partners come together.
